Data on ten molecules can be found in EP4792821A2 (Beijing Youcare Kechuang Pharmaceutical Technology Co., Ltd., dated 2026).

*1 amine or outer side, *2 acyl side, *3 side chain or, on linkers, in order; H or OH if unused. Side-chain parts run from the residue outwards. The star is where a group is joined. Succinyl(4-O-cholesteryl) = CC(C)CCC[C@@H](C)[C@H]1CC[C@H]2[C@@H]3CC=C4C[C@@H](OC(=O)CCC(=O)*)CC[C@]4(C)[C@H]3CC[C@]12C; Suc = O=C(CCC(=O)[*:2])[*:1]

The first test deals with F protein of RSV A long virus strain (Respiratory Syncytial Virus (RSV) A …, UniProt P12568 26-574). In words: cell-based or functional assay.
Sequence of F protein of RSV A long virus strain (P12568 26-574): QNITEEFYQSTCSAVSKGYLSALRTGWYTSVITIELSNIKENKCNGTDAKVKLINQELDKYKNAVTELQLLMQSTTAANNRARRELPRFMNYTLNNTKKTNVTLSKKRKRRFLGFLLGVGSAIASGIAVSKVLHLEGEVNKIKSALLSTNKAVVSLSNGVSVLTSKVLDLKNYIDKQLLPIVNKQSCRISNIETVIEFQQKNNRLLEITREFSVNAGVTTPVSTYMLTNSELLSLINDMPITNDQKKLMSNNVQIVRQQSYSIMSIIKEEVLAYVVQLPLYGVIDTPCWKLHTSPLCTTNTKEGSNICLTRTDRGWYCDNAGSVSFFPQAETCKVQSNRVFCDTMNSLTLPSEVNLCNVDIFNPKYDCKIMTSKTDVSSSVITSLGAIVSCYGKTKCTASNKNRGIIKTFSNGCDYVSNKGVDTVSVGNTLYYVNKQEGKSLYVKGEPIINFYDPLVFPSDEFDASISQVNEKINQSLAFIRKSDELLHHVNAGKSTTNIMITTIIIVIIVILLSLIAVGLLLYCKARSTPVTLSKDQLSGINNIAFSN
On to Ac-FDEEISQVNEKINQSLAFIRKSDELLHNVNAGKSTTEAAAKK([Suc-Succinyl(4-O-cholesteryl)])-NH2 [Compound 26], for which the “IC50/nM, plaque reduction, RSV A long on HEp-2 cells (Table 2, Cell fusion inhibition activity)” value was 12.8 nM.

As to Ac-YDELVFDASQVNEKINQSLEKIRKSDELLHNVEAAAKK([Suc-Succinyl(4-O-cholesteryl)])-NH2 [Compound 30], the “IC50/nM, plaque reduction, RSV A long on HEp-2 cells (Table 2, Cell fusion inhibition activity)” value was 14.9 nM.

Ac-WDEFDASISQVNEKINQSLEEIRKSDELLHNVNAGLGSGSGK([Suc-Succinyl(4-O-cholesteryl)])-NH2 [Compound 27]: the “IC50/nM, plaque reduction, RSV A long on HEp-2 cells (Table 2, Cell fusion inhibition activity)” value was found to be 25.7 nM.

As for Ac-FDASIEEVNRRIEESLRRIEESDRRLEEVNAEAAAKK([Suc-Succinyl(4-O-cholesteryl)])-NH2 [Compound 42], the “IC50/nM, plaque reduction, RSV A long on HEp-2 cells (Table 2, Cell fusion inhibition activity)” value is 11.8 nM.

For the molecule Ac-WDEFDKKIEEVNKKIEESLKKIEESDKKLEEVNAEAAAKK([Suc-Succinyl(4-O-cholesteryl)])-NH2 [Compound 40], the “IC50/nM, plaque reduction, RSV A long on HEp-2 cells (Table 2, Cell fusion inhibition activity)” value turned out to be 11.7 nM.

Take Ac-WDEFDKKIEEVNKKIEESLKKIEESDKKLEEVNEAAAKK([Suc-Succinyl(4-O-cholesteryl)])-NH2 [Compound 41]: the “IC50/nM, plaque reduction, RSV A long on HEp-2 cells (Table 2, Cell fusion inhibition activity)” value was found to be 14.8 nM.

As to Ac-DEFDASISQVNEKINQSLEEIRKSDELLHNEAAAKK([Suc-Succinyl(4-O-cholesteryl)])-NH2 [Compound 28], the “IC50/nM, plaque reduction, RSV A long on HEp-2 cells (Table 2, Cell fusion inhibition activity)” value stood at 12.4 nM.

Turning to Ac-LVKKIDEFDASISQVNEKINQSLEEIRKSDELLHNVGSGSGK([Suc-Succinyl(4-O-cholesteryl)])-NH2 [Compound 29], the “IC50/nM, plaque reduction, RSV A long on HEp-2 cells (Table 2, Cell fusion inhibition activity)” value was found to be 19.3 nM.

On to Ac-WDEFDASISQVNEKINQSLEEIRKSDELLHNVNALEAAAKK([Suc-Succinyl(4-O-cholesteryl)])-NH2 [Compound 38], for which the “IC50/nM, plaque reduction, RSV A long on HEp-2 cells (Table 2, Cell fusion inhibition activity)” value turned out to be 14.6 nM.

On to Ac-WDEFDASIEEVNRRIEESLRRIEESDRRLEEVEAAAKK([Suc-Succinyl(4-O-cholesteryl)])-NH2 [Compound 43], for which the “IC50/nM, plaque reduction, RSV A long on HEp-2 cells (Table 2, Cell fusion inhibition activity)” value is 18.3 nM.

The target of another test is F protein of hMPV virus strain A2 (human metapneumovirus (hMPV) A2). In words: cell-based or functional assay.
On to Ac-FDEEISQVNEKINQSLAFIRKSDELLHNVNAGKSTTEAAAKK([Suc-Succinyl(4-O-cholesteryl)])-NH2 [Compound 26], for which the “EC50 (nM), plaque reduction, hMPV A2 on Vero cells” value amounted to 103 nM.

Turning to Ac-YDELVFDASQVNEKINQSLEKIRKSDELLHNVEAAAKK([Suc-Succinyl(4-O-cholesteryl)])-NH2 [Compound 30], the “EC50 (nM), plaque reduction, hMPV A2 on Vero cells” value worked out at 94.8 nM.

Take Ac-WDEFDASISQVNEKINQSLEEIRKSDELLHNVNAGLGSGSGK([Suc-Succinyl(4-O-cholesteryl)])-NH2 [Compound 27]: the “EC50 (nM), plaque reduction, hMPV A2 on Vero cells” value is 78.3 nM.

Consider Ac-FDASIEEVNRRIEESLRRIEESDRRLEEVNAEAAAKK([Suc-Succinyl(4-O-cholesteryl)])-NH2 [Compound 42], for which the “EC50 (nM), plaque reduction, hMPV A2 on Vero cells” value stood at 26.1 nM.

Ac-WDEFDKKIEEVNKKIEESLKKIEESDKKLEEVNAEAAAKK([Suc-Succinyl(4-O-cholesteryl)])-NH2 [Compound 40]: the “EC50 (nM), plaque reduction, hMPV A2 on Vero cells” value was found to be 13.8 nM.

As for Ac-WDEFDKKIEEVNKKIEESLKKIEESDKKLEEVNEAAAKK([Suc-Succinyl(4-O-cholesteryl)])-NH2 [Compound 41], the “EC50 (nM), plaque reduction, hMPV A2 on Vero cells” value is 11.7 nM.

With Ac-DEFDASISQVNEKINQSLEEIRKSDELLHNEAAAKK([Suc-Succinyl(4-O-cholesteryl)])-NH2 [Compound 28], the “EC50 (nM), plaque reduction, hMPV A2 on Vero cells” value is 58.6 nM.

Consider Ac-LVKKIDEFDASISQVNEKINQSLEEIRKSDELLHNVGSGSGK([Suc-Succinyl(4-O-cholesteryl)])-NH2 [Compound 29], for which the “EC50 (nM), plaque reduction, hMPV A2 on Vero cells” value came out at 41.6 nM.

For the molecule Ac-WDEFDASISQVNEKINQSLEEIRKSDELLHNVNALEAAAKK([Suc-Succinyl(4-O-cholesteryl)])-NH2 [Compound 38], the “EC50 (nM), plaque reduction, hMPV A2 on Vero cells” value is 128 nM.

Turning to Ac-WDEFDASIEEVNRRIEESLRRIEESDRRLEEVEAAAKK([Suc-Succinyl(4-O-cholesteryl)])-NH2 [Compound 43], the “EC50 (nM), plaque reduction, hMPV A2 on Vero cells” value is 16.8 nM.

The target of another test is F protein of hMPV virus strain B1 (human metapneumovirus (hMPV) B1). In words: cell-based or functional assay.
Consider Ac-FDEEISQVNEKINQSLAFIRKSDELLHNVNAGKSTTEAAAKK([Suc-Succinyl(4-O-cholesteryl)])-NH2 [Compound 26], for which the “EC50 (nM), plaque reduction, hMPV B1 on Vero cells” value turned out to be 2.85 nM.

For the molecule Ac-YDELVFDASQVNEKINQSLEKIRKSDELLHNVEAAAKK([Suc-Succinyl(4-O-cholesteryl)])-NH2 [Compound 30], the “EC50 (nM), plaque reduction, hMPV B1 on Vero cells” value came out at 51.3 nM.

With Ac-WDEFDASISQVNEKINQSLEEIRKSDELLHNVNAGLGSGSGK([Suc-Succinyl(4-O-cholesteryl)])-NH2 [Compound 27], the “EC50 (nM), plaque reduction, hMPV B1 on Vero cells” value stood at 10.5 nM.

As to Ac-FDASIEEVNRRIEESLRRIEESDRRLEEVNAEAAAKK([Suc-Succinyl(4-O-cholesteryl)])-NH2 [Compound 42], the “EC50 (nM), plaque reduction, hMPV B1 on Vero cells” value was 10.1 nM.

With Ac-WDEFDKKIEEVNKKIEESLKKIEESDKKLEEVNAEAAAKK([Suc-Succinyl(4-O-cholesteryl)])-NH2 [Compound 40], the “EC50 (nM), plaque reduction, hMPV B1 on Vero cells” value was found to be 7.47 nM.

For Ac-WDEFDKKIEEVNKKIEESLKKIEESDKKLEEVNEAAAKK([Suc-Succinyl(4-O-cholesteryl)])-NH2 [Compound 41], the “EC50 (nM), plaque reduction, hMPV B1 on Vero cells” value was 9.46 nM.

In the case of Ac-DEFDASISQVNEKINQSLEEIRKSDELLHNEAAAKK([Suc-Succinyl(4-O-cholesteryl)])-NH2 [Compound 28], the “EC50 (nM), plaque reduction, hMPV B1 on Vero cells” value was 13.8 nM.

Turning to Ac-LVKKIDEFDASISQVNEKINQSLEEIRKSDELLHNVGSGSGK([Suc-Succinyl(4-O-cholesteryl)])-NH2 [Compound 29], the “EC50 (nM), plaque reduction, hMPV B1 on Vero cells” value was found to be 11.1 nM.

As to Ac-WDEFDASISQVNEKINQSLEEIRKSDELLHNVNALEAAAKK([Suc-Succinyl(4-O-cholesteryl)])-NH2 [Compound 38], the “EC50 (nM), plaque reduction, hMPV B1 on Vero cells” value was found to be 16.6 nM.

Ac-WDEFDASIEEVNRRIEESLRRIEESDRRLEEVEAAAKK([Suc-Succinyl(4-O-cholesteryl)])-NH2 [Compound 43]: the “EC50 (nM), plaque reduction, hMPV B1 on Vero cells” value amounted to 8.01 nM.

Another test addresses F protein of hPIV Type 3 (hPIV3 C243) (human Parainfluenza Virus type 3 (hPIV3 …)). In words: cell-based or functional assay.
In the case of Ac-FDEEISQVNEKINQSLAFIRKSDELLHNVNAGKSTTEAAAKK([Suc-Succinyl(4-O-cholesteryl)])-NH2 [Compound 26], the “EC50 (nM), plaque reduction, hPIV3 C243 on LLC-MK2 cells” value (shortened to “EC50 (nM), plaque reduction, hPIV3 C243”) stood at 1.35 nM.

For Ac-YDELVFDASQVNEKINQSLEKIRKSDELLHNVEAAAKK([Suc-Succinyl(4-O-cholesteryl)])-NH2 [Compound 30], the “EC50 (nM), plaque reduction, hPIV3 C243” value was 48.2 nM.

Take Ac-WDEFDASISQVNEKINQSLEEIRKSDELLHNVNAGLGSGSGK([Suc-Succinyl(4-O-cholesteryl)])-NH2 [Compound 27]: the “EC50 (nM), plaque reduction, hPIV3 C243” value is 27.2 nM.

Consider Ac-FDASIEEVNRRIEESLRRIEESDRRLEEVNAEAAAKK([Suc-Succinyl(4-O-cholesteryl)])-NH2 [Compound 42], for which the “EC50 (nM), plaque reduction, hPIV3 C243” value turned out to be 18.9 nM.

Turning to Ac-WDEFDKKIEEVNKKIEESLKKIEESDKKLEEVNAEAAAKK([Suc-Succinyl(4-O-cholesteryl)])-NH2 [Compound 40], the “EC50 (nM), plaque reduction, hPIV3 C243” value came out at 22.2 nM.

Turning to Ac-WDEFDKKIEEVNKKIEESLKKIEESDKKLEEVNEAAAKK([Suc-Succinyl(4-O-cholesteryl)])-NH2 [Compound 41], the “EC50 (nM), plaque reduction, hPIV3 C243” value is 71.1 nM.

For the molecule Ac-DEFDASISQVNEKINQSLEEIRKSDELLHNEAAAKK([Suc-Succinyl(4-O-cholesteryl)])-NH2 [Compound 28], the “EC50 (nM), plaque reduction, hPIV3 C243” value worked out at 54.4 nM.

In the case of Ac-LVKKIDEFDASISQVNEKINQSLEEIRKSDELLHNVGSGSGK([Suc-Succinyl(4-O-cholesteryl)])-NH2 [Compound 29], the “EC50 (nM), plaque reduction, hPIV3 C243” value was determined as 26.3 nM.

Take Ac-WDEFDASISQVNEKINQSLEEIRKSDELLHNVNALEAAAKK([Suc-Succinyl(4-O-cholesteryl)])-NH2 [Compound 38]: the “EC50 (nM), plaque reduction, hPIV3 C243” value came to 26.4 nM.

Turning to Ac-WDEFDASIEEVNRRIEESLRRIEESDRRLEEVEAAAKK([Suc-Succinyl(4-O-cholesteryl)])-NH2 [Compound 43], the “EC50 (nM), plaque reduction, hPIV3 C243” value was 16.1 nM.
